# In patent publication US20110076268A1 (CRUCELL HOLLAND B V, published 2011):
# Columns and labels:
# [1] = biological target: F protein of the motavizumab MARM (K272E) (Respiratory Syncytial Virus strain A2) (UniProt P03420); assay: cell-based or functional assay
# [2] = biological target: F protein of MARM 151 (RSV A2 escape mutant generated against murine mAb 151) (Respiratory Syncytial Virus strain A2) (UniProt P03420); assay: cell-based or functional assay
# [3] = biological target: F protein of RSV B-1 (ATCC Cat. No. 1400) (Respiratory Syncytial Virus B, strain B-1) (UniProt O36634); assay: cell-based or functional assay
# [4] = biological target: F protein of the IgG form of 58C5 MARM (N63K, M115K and E295G) (Respiratory Syncytial Virus strain A2) (UniProt P03420); assay: cell-based or functional assay
# [5] = biological target: F protein of MARM 1129 (RSV A2 escape mutant generated against murine mAb 1129) (Respiratory Syncytial Virus strain A2) (UniProt P03420); assay: cell-based or functional assay
# [6] = biological target: F protein of MARM 19 (RSV A2 escape mutant generated against human Fab 19) (Respiratory Syncytial Virus strain A2) (UniProt P03420); assay: cell-based or functional assay
# [7] = biological target: F protein of RSV B-wash (ATCC Cat. No. VR-1580, strain 18537) (Respiratory Syncytial Virus B, strain 18537) (UniProt P13843); assay: cell-based or functional assay
# [8] = biological target: T1, RSV strain A2 F protein (recombinant or native, not specified for Table 19) (Respiratory Syncytial Virus strain A2, UniProt P03420 26-524); assay: ELISA, IgG titrated on captured RSV F protein; EC50 estimated
# T1 construct: also called RSV F Protein
molecule,measurement,setting,value
IgG form of 58c5 (antibody),"ED50, neutralization of Motavizumab MARM",[1],0.173 nM
same,"Plaque reduction rate, Motavizumab MARM, 3.2 ng/ml",[1],1.5%
same,"Plaque reduction rate, Motavizumab MARM, 16 ng/ml",[1],43%
same,"Plaque reduction rate, Motavizumab MARM, 80 ng/ml",[1],74.6%
same,"Plaque reduction rate, Motavizumab MARM, 400 ng/ml",[1],92%
same,"Plaque reduction rate, Motavizumab MARM, 2000 ng/ml",[1],95.8%
same,"Plaque reduction rate, Motavizumab MARM, 10000 ng/ml",[1],97.6%
same,"Average Plaque Count, 0.003 ug/ml",[2],151 plaques
same,"Average Plaque Count, 0.016 ug/ml",[2],128 plaques
same,"Average Plaque Count, 0.08 ug/ml",[2],112 plaques
same,"Average Plaque Count, 0.4 ug/ml",[2],64.7 plaques
same,"Average Plaque Count, 2 ug/ml",[2],15.3 plaques
same,"Average Plaque Count, 10 ug/ml",[2],0 plaques
same,"Plaque reduction rate, 0.003 ug/ml",[2],0%
same,"Plaque reduction rate, 0.016 ug/ml",[2],15%
same,"Plaque reduction rate, 0.08 ug/ml",[2],26%
same,"Plaque reduction rate, 0.4 ug/ml",[2],57%
same,"Plaque reduction rate, 2 ug/ml",[2],90%
same,"Plaque reduction rate, 10 ug/ml",[2],100%
same,"Average Plaque Count, 0.003 ug/ml",[3],11.7 plaques
same,"Average Plaque Count, 0.016 ug/ml",[3],9.3 plaques
same,"Average Plaque Count, 0.08 ug/ml",[3],4 plaques
same,"Average Plaque Count, 0.4 ug/ml",[3],0.3 plaques
same,"Average Plaque Count, 2 ug/ml",[3],0 plaques
same,"Average Plaque Count, 10 ug/ml",[3],0 plaques
same,"Plaque reduction rate (%), 0.003 ug/ml",[3],5%
same,"Plaque reduction rate (%), 0.016 ug/ml",[3],24%
same,"Plaque reduction rate (%), 0.08 ug/ml",[3],67.5%
same,"Plaque reduction rate (%), 0.4 ug/ml",[3],97.6%
same,"Plaque reduction rate (%), 2 ug/ml",[3],100%
same,"Plaque reduction rate (%), 10 ug/ml",[3],100%
same,"ED50, neutralization of IgG 58C5 MARM",[4],> 66.7 nM
same,"Plaque reduction rate, IgG 58C5 MARM, 3.2 ng/ml",[4],0%
same,"Plaque reduction rate, IgG 58C5 MARM, 16 ng/ml",[4],0%
same,"Plaque reduction rate, IgG 58C5 MARM, 80 ng/ml",[4],0%
same,"Plaque reduction rate, IgG 58C5 MARM, 400 ng/ml",[4],0%
same,"Plaque reduction rate, IgG 58C5 MARM, 2000 ng/ml",[4],0%
same,"Plaque reduction rate, IgG 58C5 MARM, 10000 ng/ml",[4],3.3%
same,"Average Plaque Count, 0.003 ug/ml",[5],17.7 plaques
same,"Average Plaque Count, 0.016 ug/ml",[5],11.7 plaques
same,"Average Plaque Count, 0.08 ug/ml",[5],5.7 plaques
same,"Average Plaque Count, 0.4 ug/ml",[5],2.3 plaques
same,"Average Plaque Count, 2 ug/ml",[5],0 plaques
same,"Average Plaque Count, 10 ug/ml",[5],0 plaques
same,"Plaque reduction rate, 0.003 ug/ml",[5],21%
same,"Plaque reduction rate, 0.016 ug/ml",[5],47%
same,"Plaque reduction rate, 0.08 ug/ml",[5],74%
same,"Plaque reduction rate, 0.4 ug/ml",[5],90%
same,"Plaque reduction rate, 2 ug/ml",[5],100%
same,"Plaque reduction rate, 10 ug/ml",[5],100%
same,"Average Plaque Count, 0.003 ug/ml",[6],143 plaques
same,"Average Plaque Count, 0.016 ug/ml",[6],135 plaques
same,"Average Plaque Count, 0.08 ug/ml",[6],89.3 plaques
same,"Average Plaque Count, 0.4 ug/ml",[6],72 plaques
same,"Average Plaque Count, 2 ug/ml",[6],16.7 plaques
same,"Average Plaque Count, 10 ug/ml",[6],0.7 plaques
same,"Plaque reduction rate, 0.003 ug/ml",[6],8%
same,"Plaque reduction rate, 0.016 ug/ml",[6],14%
same,"Plaque reduction rate, 0.08 ug/ml",[6],42.7%
same,"Plaque reduction rate, 0.4 ug/ml",[6],53.8%
same,"Plaque reduction rate, 2 ug/ml",[6],89%
same,"Plaque reduction rate, 10 ug/ml",[6],100%
same,"Average Plaque Count, 0.003 ug/ml",[7],20.7 plaques
same,"Average Plaque Count, 0.016 ug/ml",[7],16.3 plaques
same,"Average Plaque Count, 0.08 ug/ml",[7],7.7 plaques
same,"Average Plaque Count, 0.4 ug/ml",[7],1.3 plaques
same,"Average Plaque Count, 2 ug/ml",[7],0 plaques
same,"Average Plaque Count, 10 ug/ml",[7],0 plaques
same,"Plaque reduction rate (%), 0.003 ug/ml",[7],21%
same,"Plaque reduction rate (%), 0.016 ug/ml",[7],38%
same,"Plaque reduction rate (%), 0.08 ug/ml",[7],71%
same,"Plaque reduction rate (%), 0.4 ug/ml",[7],95%
same,"Plaque reduction rate (%), 2 ug/ml",[7],100%
same,"Plaque reduction rate (%), 10 ug/ml",[7],100%
"Motavizumab (antibody, V domains shown) VH: QVTLRESGPALVKPTQTLTLTCTFSGFSLSTAGMSVGWIRQPPGKALEWLADIWWDDKKHYNPSLKDRLTISKDTSKNQVVLKVTNMDPADTATYYCARDMIFNFYFDVWGQGTTVTVSS VL: DIQMTQSPSTLSASVGDRVTITCSASSRVGYMHWYQQKPGKAPKLLIYDTSKLASGVPSRFSGSGSGTEFTLTISSLQPDDFATYYCFQGSGYPFTFGGGTKVEIK",EC50,[8],~0.027 nM
